In patent US10077295B2, “Glycoproteins having lipid mobilizing properties and therapeutic uses thereof” (Aston University, priority 2010, dated 2018):

Legend:
[1] = molecular target: β3-AR (Homo sapiens, UniProt P13945); assay: Cyclic AMP production in CHO-K1 cells transfected with β3-AR; format: cell-based; design: host or cells: CHO-K1; conditions: CHO-K1 β3-AR
Procedure: (§1) Binding Studies and Cyclic AMP Determination. CHO-K1 cells transfected with the human β1- and β2-AR obtained from University of Nottingham, UK, while CHOK1 cells transfected with the β3-AR were obtained from Astra Zeneca, Macclesfield, Cheshire, UK. Gene expression was under the control of hygromycin, together with a β-gal reporter construct, selected for resistance to G418. They were maintained in DMEM supplemented with 2 mM glutamine, hygromycin B ([…]), G418 ([…]), and 10% FCS, under an atmosphere of 10% CO2 in air. To determine the effect of agonists on cyclic AMP production, cells were grown in 24-well plates containing 1 ml of nutrient medium.

[2] = tested on: murine epididymal adipocytes; assay: Lipolytic assay (glycerol release) in murine adipocytes; format: cell-based, mouse
Procedure: Cell Culture and Purification of ZAG. Single-cell suspensions of white adipocytes were prepared from minced adipose deposits by incubation at 37° C. for 2 h in Krebs-Ringer biocarbonate buffer containing 1.5 mgml^−1 collagenase, and 4% bovine serum albumin under an atmosphere of 95% oxygen: 5% CO2 as previously described. For time-course studies adipocytes were suspended in DMEM containing 10% fetal calf serum at a concentration of 10^5 cells ml^−1 and maintained under an atmosphere of 10% CO2 in air at 37° C. Human 293 cells transfected with a plasmid containing human ZAG were seeded at a concentration of 10^5 cells ml^−1 in FreeStyle medium and maintained under an atmosphere of 5% CO2 in air at 37° C. Maximal protein levels (16 μgml^−1) were obtained after 14 days of culture. The media (200 ml) was then centrifuged at 700 g for 15 min to remove cells and concentrated into a volume of 1 ml of sterile PBS using an Amicon Ultra-15 centrifugal filter with a 10 kDa cut-off After measurement of the protein concentration of the sample (about 2 mg) it was added to 2 g DEAE cellulose suspended in 20 ml of 10 mM Tris, pH8.8 and stirred at 4° C. for 2 h. ZAG being negatively charged binds to the DEAE cellulose, which was sedimented by centrifugation (1500 g for 15 min), and eluted by stirring with 20 ml 10 mM Tris, pH8.8 containing 0.3M NaCl for 30 min at 4° C. The supernatant was washed and concentrated to a volume of 1 ml in sterile PBS using the Amicon centrifugal filter.
Lipolytic assay. Samples to be assayed were incubated with 10^5 to 2×10^5 adipocytes for 2 h in 1 ml Krebs-Ringer bicarbonate buffer, pH 7.2. The concentration of glycerol released was determined enzymatically by the method of Wieland (Wieland, O. Glycerol UV method. In Methods of Enzymatic Analysis (ed. Bergmeyer, H.U.) (Academic Press, London, UK, pp 1404-1409, 1974)). Control samples containing adipocytes alone were analysed to determine the spontaneous glycerol release. Activity was expressed as μmol glycerol released/10^5 adipocytes/2 h.

[3] = tested on: skeletal muscle of ob/ob mice; assay: Protein synthesis and degradation in skeletal muscle of ZAG-treated ob/ob mice; format: in vivo, mouse; conditions: ob/ob mice treated 5 days
Procedure: Protein Synthesis and Degradation in Muscle. The method for the determination of protein synthesis and degradation in muscle has been previously described (Smith, K. L. & Tisdale, M. J. Increased protein degradation and decreased protein synthesis in skeletal muscle during cancer cachexia. Br. J. Cancer 67, 680-685 (1993)). […] Protein synthesis was measured by the incorporation of L-[2,6-^3H] phenylalanine (640 MBq) into acid-insoluble material using a 2 h period in which the muscles were incubated at 37° C. in RPMI/640 without phenol red and saturated with O2:CO2 (19:1). Muscles were then rinsed in non-radioactive medium, blotted and homogenised in 2% perchloric acid. The rate of protein synthesis was calculated by dividing the amount of protein-bound radioactivity by the amount of acid soluble radioactivity. Protein degradation was determined by the release of tyrosine from gastrocnemius muscle over a 2 h period in 3 ml of oxygenated Krebs-Henseleit buffer, pH7.4, containing 5 mM glucose and 0.5 mM cycloheximide.

[4] = molecular target: T1, human β2-AR (Homo sapiens, UniProt P07550); assay: Cyclic AMP production in CHO-K1 cells transfected with β2-AR; format: cell-based; conditions: CHO-K1 β2-AR
T1 construct: host or cells: CHO-K1
Procedure: as §1

[5] = tested on: adipocytes, BAT; assay: Expression of ZAG, HSL, UCP in adipose tissue/adipocytes of mice (5 day ZAG study); format: in vivo, mouse
Procedure: Western Blot Analysis. Freshly excised gastrocnemius muscles were washed in PBS and lysed in PHOSPHOSAFE™ Extraction Reagent for 5 min at room temperature followed by sonication at 4° C. The lysate was cleared by centrifugation at 18,000 g for 5 min at 4° C. and samples of cytosolic protein (5 μg) were resolved on 12% sodium dodecyl sulfate-polyacrylamide gel electrophoresis at 180V for approximately 1 h. This was followed by transference to 0.45 μm nitrocellulose membranes, which were then blocked with 5% Marvel in Tris-buffered saline, pH 7.5, at 4° C. overnight. Both primary and secondary antibodies were used at a dilution of 1:1000 except anti-myosin (1:250). Incubation was for 1 h at room temperature, and development was by ECL. Blots were scanned by a densitometer to quantify differences.
A 5 day study was performed where ZAG was administered at 35 μg per day i.v. on a daily basis for 5 days. At the end of the experiment tissues were removed and blotted, or functional assays were carried out with isolated adipocytes. […] When ep adipocytes were prepared and maintained in tissue culture (RPMI 1640+10% FCS) ZAG expression was maintained for a further 3 days, even though no ZAG was added to the culture medium (FIG. 6B). […] In fact, as discussed above, too much ZAG is more likely to lead to resistance rather than an increased response.

β3-AR, sequence (P13945 whole entry): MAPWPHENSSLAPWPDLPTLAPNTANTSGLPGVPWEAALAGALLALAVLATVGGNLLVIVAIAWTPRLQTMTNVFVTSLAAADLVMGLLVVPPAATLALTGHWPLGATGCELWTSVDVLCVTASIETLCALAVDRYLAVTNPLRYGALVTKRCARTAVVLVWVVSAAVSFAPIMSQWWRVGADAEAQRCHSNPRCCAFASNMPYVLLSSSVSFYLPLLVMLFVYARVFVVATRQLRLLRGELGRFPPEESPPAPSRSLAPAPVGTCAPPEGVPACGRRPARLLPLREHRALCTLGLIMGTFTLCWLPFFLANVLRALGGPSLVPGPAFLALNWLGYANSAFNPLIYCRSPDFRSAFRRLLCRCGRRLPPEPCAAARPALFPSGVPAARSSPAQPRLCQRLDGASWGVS

B1: ZAG: recombinant full length human zinc-α2-glycoprotein (SEQ ID NO: 1) secreted by transfected HEK293F cells; lipid mobilizing factor (protein, listed as Homo sapiens)
chain: QENQDGRYSLTYIYTGLSKHVEDVPAFQALGSLNDLQFFRYNSKDRKSQPMGLWRQVEGMEDWKEDSQLQKAREDMETLKDIVEYYNDSNGSHVLQGRFGCEIENNRSSGAFWKYYYDGKDYIEFNKEIPAWVPFDPAAQITKQKWEAEPVYVQRAKAYLEEECPATLRKYLKYSKNILDRQDPPSVVVTSHQAPGEKKKLKCLAYDFYPGKIDVHWTRAGQVQEPELRGDVLHNGNGTYQSWVVVAVPPQDTAPYSCHVQHSSLAQPLVVPWEAS
lowest concentration to stimulate cyclic AMP production [1]: 350 nM | lipolytic effect in adipocytes from subcutaneous and visceral deposits ([2]; compared with epididymal adipocytes): considerably reduced | lipolysis in epididymal adipocytes ([2]; mouse adipocytes): stimulated lipolysis | effect of a single freezing and thawing cycle on lipolytic activity ([2]; murine epididymal adipocytes): destroyed | potency at inducing lipolysis compared with isoprenaline ([2]; on a molar basis): more potent at inducing lipolysis than isoprenaline on a molar basis | decrease in protein degradation [3]: 60% | protein synthesis in soleus muscle [3]: over a two-fold increase | concentration required to stimulate cyclic AMP production [4]: 580 nM | ZAG expression in epididymal, subcutaneous and visceral fat ([5]; 35 μg per day i.v., 5 days): about two-fold | time increased response to isoprenaline was maintained in tissue culture without ZAG ([5]; adipocytes from ZAG treated mice, isoprenaline 10 μM): 4 days | expression of phospho HSL in adipocytes ([5]; adipocytes of non-obese mice, 3 h): increased expression of phospho HSL | expression of UCP1 and UCP3 in BAT ([5]; ob/ob mice treated 5 days): increased the expression of UCP1
